Laboratory results from PMC6233201 (Scientific Reports, 2018).

Target: the molecule itself
Assay: SEC; gel filtration (Superdex 200 10/300 GL) of the Ni-NTA purified DEDs; self-association read from the elution position (monomer, dimer, oligomer peaks)

B1: wild-type death effector domains (DEDs) of human caspase-8 (residues 1-188) with a C-terminal His6 tag (domain or fragment, UniProt Q14790-1 1-188, looked up)
chain: MDFSRNLYDIGEQLDSEDLASLKFLSLDYIPQRKQEPIKDALMLFQRLQEKRMLEESNLSFLKELLFRINRLDLLITYLNTRKEEMERELQTPGRAQISAYRVMLYQISEEVSRSELRSFKFLLQEEISKCKLDDDMNLLDIFIEMEKRVILGEGKLDILKRVCAQINKSLLKIINDYEEFSKERSSS
notes: tandem death effector domains (DED) of human caspase-8, residues 1-188, UniProt Q14790-1; The soluble protein was mixed with E. coli slyD after purification; also called DED^WT; wild-type DEDs; source: E. coli Rosetta (DE3) pLysS, pET-21b, purified (Ni-NTA, gel filtration); very low yields of soluble protein; not shown: His6, C-terminal, kept
- binding result: binds
